The values below come from article PMC2172211 (The Journal of Cell Biology, 2004).

The target of this experiment is T1, GST-Patj (Drosophila, UniProt Q9NB04 1-871).
T1 sequence (looked up): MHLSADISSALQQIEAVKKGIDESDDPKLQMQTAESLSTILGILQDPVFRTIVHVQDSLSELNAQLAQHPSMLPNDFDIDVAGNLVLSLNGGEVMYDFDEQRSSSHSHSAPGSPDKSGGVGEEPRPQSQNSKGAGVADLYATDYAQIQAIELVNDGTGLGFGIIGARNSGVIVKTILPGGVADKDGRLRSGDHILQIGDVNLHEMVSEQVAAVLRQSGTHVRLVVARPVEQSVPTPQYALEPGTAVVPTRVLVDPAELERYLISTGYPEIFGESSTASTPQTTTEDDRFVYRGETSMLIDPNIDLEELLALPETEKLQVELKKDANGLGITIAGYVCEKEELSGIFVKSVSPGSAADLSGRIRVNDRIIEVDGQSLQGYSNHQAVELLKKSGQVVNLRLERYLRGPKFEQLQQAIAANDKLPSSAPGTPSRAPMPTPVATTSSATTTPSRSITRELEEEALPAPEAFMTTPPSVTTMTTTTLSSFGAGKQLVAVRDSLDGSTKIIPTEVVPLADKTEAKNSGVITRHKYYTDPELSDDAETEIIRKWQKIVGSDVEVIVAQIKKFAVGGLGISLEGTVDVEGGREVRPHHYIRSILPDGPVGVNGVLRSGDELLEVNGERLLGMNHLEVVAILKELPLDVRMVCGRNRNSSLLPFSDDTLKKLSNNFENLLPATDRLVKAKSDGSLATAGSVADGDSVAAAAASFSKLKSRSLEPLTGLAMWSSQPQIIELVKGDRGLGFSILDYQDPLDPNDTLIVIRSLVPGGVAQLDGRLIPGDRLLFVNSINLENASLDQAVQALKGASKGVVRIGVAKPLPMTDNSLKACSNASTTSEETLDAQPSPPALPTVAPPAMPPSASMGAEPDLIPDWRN
Description: pull-down.

B1: His-tagged DaPKC (enzyme, Drosophila, UniProt A1Z9X0 1-606, looked up)
chain: MQKMPSQILNDGSSVSLNSASMNMANTPNSITVKTAYNGQIIITTINKNISYEELCYEIRNICRFPLDQPFTIKWVDEENDPCTISTKMELDEAIRLYEMNFDSQLVIHVFPNVPQAPGLSCDGEDRSIYRRGARRWRKLYRVNGHIFQAKRFNRRAFCAYCQDRIWGLGRQGFKCIQCKLLVHKKCHKLVQKHCTDQPEPLVKERAEESSDPIPVPLPPLPYEAMSGGAEACETHDHAHIVAPPPPEDPLEPGTQRQYSLNDFELIRVIGRGSYAKVLMVELRRTRRIYAMKVIKKALVTDDEDIDWVQTEKHVFETASNHPFLVGLHSCFQTPSRLFFVIEFVRGGDLMYHMQRQRRLPEEHARFYAAEISLALNFLHEKGIIYRDLKLDNVLLDHEGHIKLTDYGMCKEGIRPGDTTSTFCGTPNYIAPEILRGEDYGFSVDWWALGVLLYEMLAGRSPFDLAGASENPDQNTEDYLFQVILEKTIRIPRSLSVRAASVLKGFLNKNPADRLGCHRESAFMDIVSHPFFKNMDWELLERKQVTPPFKPRLDSDRDLANFPPEFTGEAVQLTPDDDHVIDNIDQSEFEGFEYVNPLLMSLEDCV
For the molecule B1, the binding result is “binds”.
